In US20120231013A1:

Molecular target: recombinant TIMP-3 (human or mouse; Table 2 does not say which)
Test: AlphaScreen, biotinylated TIMP-3, Assay 1

Sequence of recombinant TIMP-3 (human or mouse; Table 2 does not say which) (P35625 24-211): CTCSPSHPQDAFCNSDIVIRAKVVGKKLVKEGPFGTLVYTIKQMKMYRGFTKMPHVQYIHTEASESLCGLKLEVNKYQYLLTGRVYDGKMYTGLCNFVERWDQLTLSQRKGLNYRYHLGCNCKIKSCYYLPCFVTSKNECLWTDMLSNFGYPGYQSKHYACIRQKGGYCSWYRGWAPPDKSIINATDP

- total signal (cps): 2200 cps
B1: LRP-1 peptide LA20 (peptide)
chain: CNASSQFLCSSGRCVAEALLCNGQDDCGDSSDERGCHINE
